What was measured:
[1] = test system: subgenomic HCV replicon of genotype 1b; test: microbe, parasite or virus in culture; type: cell-based, hepatitis C virus
Procedure: Huh7 human hepatoma cells were cultured in Dulbecco's modified Eagle medium (DMEM; Invitrogen, Carlsbad, Calif., USA) supplemented with 10% fetal bovine serum (FBS; Invitrogen), 100 units/ml of penicillin, and 100 μg/ml of streptomycin in a 5% CO2 incubator. SgPC2 cells are G418-selected, pooled Huh7 cell clones that support the continuous replication of a subgenomic HCV replicon of genotype 1b and [29] (GenBank Accession No. AJ242652) that carries a S11791 adaptive mutation within the NS5A region. SgPC2 cells were maintained in the above medium supplemented with 0.5 mg/ml G418 (Invitrogen). G418 was removed at least 1 day before cell treatments.

[2] = test system: JFH1 HCV (genotype 2a); type: cell-based, hepatitis C virus; conditions: JFH1-transfected cells, 0.25 mU/mL GO plus glucose
Procedure: (§1) For viral RNA transfection, JFH1, JFH1/GND, and pSGR-JFH1-Luc were linearized with XbaI and used to synthesize the corresponding positive-sense stranded HCV RNA, as previously described (68). Then, 5×10^6 Huh7 cells were rinsed with Opti-Mem (Invitrogen), mixed briefly with 10-20 μg of the in vitro transcribed RNA in 0.4 ml of Opti-Mem, and then electroporated at 260 volts and 950 μF. […] Medium was changed daily. For infection with HCV, medium collected from JFH1 RNA-transfected cells were cleared of cell debris, as described, and added to naïve Huh7 cells. Typically, 1:2 or 3:2 ratio of the virus-containing medium and fresh cell culture medium were used.
JFH1/GND was used as the negative control. […]
Intracellular JFH1 HCV RNA content was also analyzed by qRT-PCR (Taqman), using ABI7300 real time PCR system and one step RT-PCR kit from Applied Biosystems. […] All samples were analyzed in duplicates or triplicates. […] The level of 18S rRNA was also analyzed, using manufacturer-optimized protocol, as the control.
To analyze the amount of the extracellular HCV RNA, medium from the cells were cleared by low-speed centrifugation and then, treated with RNaseA at room temperature. Then, the RNA samples were extracted, using Trizol LS Reagent (Invitrogen), and analyzed for HCV RNA content by qRT-PCR.

[3] = test system: JFH1-transfected cells; test: ATP concentration as cytotoxicity measure in JFH1-transfected cells; conditions: JFH1-transfected cells, concentrations used
Procedure: Determination of ATP concentrations—ATP level was measured, using Somatic Cell ATP Assay kit from Sigma-Aldrich, as previously described (68). Protein level was determined with bicinchoninic acid kit (Pierce Biotechnology, Inc., Rockford, Ill.).
ATP concentration was measured to determine if the treatments were cytotoxic to the cells.

[4] = test system: intracellular calcium concentration ([Ca^2+]i); test: [Ca^2+]i measurement with Indo-1 AM in SgPC2 cells; type: cell-based, human; conditions: 24 h, 2 mU/ml GO
Procedure: Briefly, on the day of the experiment, cells were washed in Krebs-Ringer phosphate buffer (KRPH; pH 7.4, containing 1.0 mM MgSO4, 1.3 mM CaCl2, 10 mM Hepes, 5 mM glucose, 125 mM NaCl, 5 mM KCl, and 10 mM sodium phosphate) and subsequently loaded with 10-20 μM Indo-1 AM (70 μl/coverslip; Molecular Probes, Inc., Eugene, Oreg., USA) containing 10 μM probenecid (Molecular Probes) for 30 min at 37° C. The attached cells were washed and bathed in KRPH/probenecid at 4° C. or room temperature until further analysis. Then, coverslips were individually submerged into KRPH and preequilibrated inside the […] fluorimeter (Hitachi) in darkness for 3 min, and [Ca^2+]i was monitored continuously at 37° C., with excitation at […] and emission at 400 and 450 nm. H2O2 and other agents were injected at different time points, as indicated under Results. [Ca^2+]i was calculated as described. Rmax was determined by adding 8-16 μM digitonin and Rmin with 10 mM ethylene glycol-bis(β-aminoethyl)-N,N,N'-tetraacetic acid (EGTA). […] The baseline, which represented unstimulated cells scanned over time, was plotted along with other measurements or subtracted from the other plots. Cells were serum-depleted, 1 day before the experiment, by incubating them overnight in DMEM plus 0.5% FBS. […] Then, CaCl2 was added before determining the Rmax for each run.

[5] = test system: SgJFH1-Luc RNA (subgenomic JFH1 replicon); test: SgJFH1-Luc RNA replication in Huh7 cells, luciferase assay; type: cell-based, hepatitis C virus; conditions: Huh7 cells transfected with SgJFH1-Luc RNA
Procedure: as §1
SgJFH1-Luc RNA replication was also monitored by firefly luciferase reporter assay, using a kit from Promega.
To investigate whether the HCV RNA replication is modulated by ROS, Huh7 cells were transfected with the SgJFH1-Luc RNA and treated with GO plus glucose.
After 24 and 48 hours, respectively, the cells were collected in PBS, centrifuged, lysed in the reporter lysis buffer (Promega), and analyzed for luciferase activity.

[6] = test system: HCV NS5A; conditions: after 24 h of GO exposure
Procedure: Cells were sonicated in 2× Laemmli buffer and total protein samples were analyzed for HCV NS5A level by Western blot, using monoclonal anti-NS5A antibodies (Biodesign) and the corresponding horseradish peroxidase-conjugated secondary antibodies. Chemiluminescent images were processed with an ECL kit from Amersham Pharmacia and analyzed with the IS2000 gel imaging system (Kodak).

B1: IFN-γ: interferon-γ, known to inhibit HCV RNA replication in Huh7 cells (protein, UniProt P01579 24-161, looked up)
Interferon gamma: QDPYVKEAENLKKYFNAGHSDVADNGTLFLGILKNWKEESDRKIMQSQIVSFYFKLFKNFKDDQSIQKSVETIKEDMNVKFFNSNKKKRDDFEKLTNYSVTDLNVQRKAIHELIQVMAELSPAAKTGKRKRSQMLFRG
[1]; 30 min treatment
  effect on HCV RNA replication after 30 min of treatment: no appreciable effect
[1]; SgPC2 cells, 24 h, 100 U/ml
  HCV RNA level, % of control level: about 15%

B2: GO: enzyme which catalyzes the oxidation of β-D-glucose to D-glucono-1,5-lactone and hydrogen peroxide (protein, UniProt P13006 17-605, looked up)
Glucose oxidase: LPHYIRSNGIEASLLTDPKDVSGRTVDYIIAGGGLTGLTTAARLTENPNISVLVIESGSYESDRGPIIEDLNAYGDIFGSSVDHAYETVELATNNQTALIRSGNGLGGSTLVNGGTWTRPHKAQVDSWETVFGNEGWNWDNVAAYSLQAERARAPNAKQIAAGHYFNASCHGVNGTVHAGPRDTGDDYSPIVKALMSAVEDRGVPTKKDFGCGDPHGVSMFPNTLHEDQVRSDAAREWLLPNYQRPNLQVLTGQYVGKVLLSQNGTTPRAVGVEFGTHKGNTHNVYAKHEVLLAAGSAVSPTILEYSGIGMKSILEPLGIDTVVDLPVGLNLQDQTTATVRSRITSAGAGQGQAAWFATFNETFGDYSEKAHELLNTKLEQWAEEAVARGGFHNTTALLIQYENYRDWIVNHNVAYSELFLDTAGVASFDVWDLLPFTRGYVHILDKDPYLHHFAYDPQYFLNELDLLGQAAATQLARNISNSGAMQTYFAGETIPGDNLAYDADLSAWTEYIPYHFRPNYHGVGTCSMMPKEMGGVVDNAARVYGVQGLRVIDGSIPPTQMSSHVMTVFYAMALKISDAILEDYASMQ
[2]
  decrease of intracellular HCV RNA content: 30±8%
[3]
  cytotoxicity (ATP concentration, cell survivability): did not cause any loss in cell survivability
[4]
  intracellular calcium concentration: 66.4 ± 10.7 nM
[1]
  effect on HCV RNA level / replication: dose-dependently suppressed
[5]
  HCV RNA level by luciferase activity: decreased HCV RNA level
[6]
  NS5A protein level: decrease

B3: catalase: exogenous catalase (Sigma-Aldrich) added to confirm the role of H2O2 (protein, UniProt P00432 2-527, looked up)
Catalase: ADNRDPASDQMKHWKEQRAAQKPDVLTTGGGNPVGDKLNSLTVGPRGPLLVQDVVFTDEMAHFDRERIPERVVHAKGAGAFGYFEVTHDITRYSKAKVFEHIGKRTPIAVRFSTVAGESGSADTVRDPRGFAVKFYTEDGNWDLVGNNTPIFFIRDALLFPSFIHSQKRNPQTHLKDPDMVWDFWSLRPESLHQVSFLFSDRGIPDGHRHMNGYGSHTFKLVNANGEAVYCKFHYKTDQGIKNLSVEDAARLAHEDPDYGLRDLFNAIATGNYPSWTLYIQVMTFSEAEIFPFNPFDLTKVWPHGDYPLIPVGKLVLNRNPVNYFAEVEQLAFDPSNMPPGIEPSPDKMLQGRLFAYPDTHRHRLGPNYLQIPVNCPYRARVANYQRDGPMCMMDNQGGAPNYYPNSFSAPEHQPSALEHRTHFSGDVQRFNSANDDNVTQVRTFYLKVLNEEQRKRLCENIAGHLKDAQLFIQKKAVKNFSDVHPEYGSRIQALLDKYNEEKPKNAVHTYVQHGSHLSAREKANL
[1]; SgPC2 cells, GO 24 h, 130-200 U/ml catalase or 2 μM BAPTA-AM
  effect on the suppression of HCV RNA by GO: attenuated the suppression by GO
